Measured values reported in patent publication US20160024487.

Tests used:
[1] = molecular target: T1, Lys(Dnp)-ATNATMHPRIVGG-Lys(Abz)
T1 chain: KATNATMHPRIVGGK

[2] = molecular target: T2, Lys(Dnp)-ATNATPKPRIVGG-Lys(Abz)
T2 chain: KATNATPKPRIVGGK

[3] = molecular target: T3, Lys(Dnp)-ATNATYWPRIVGG-Lys(Abz)
T3 chain: KATNATYWPRIVGGK

[4] = molecular target: T4, Lys(Dnp)-ATNATIFPRIVGG-Lys(Abz)
T4 chain: KATNATIFPRIVGGK

[5] = molecular target: T5, Lys(Dnp)-ATNATLHPRIVGG-Lys(Abz)
T5 chain: KATNATLHPRIVGGK

[6] = molecular target: T6, Lys(Dnp)-ATNATYTPRIVGG-Lys(Abz)
T6 chain: KATNATYTPRIVGGK

[7] = molecular target: T7, Lys(Dnp)-ATNATVVPRIVGG-Lys(Abz)
T7 chain: KATNATVVPRIVGGK

[8] = molecular target: T8, Lys(Dnp)-ATNATIWPRIVGG-Lys(Abz)
T8 chain: KATNATIWPRIVGGK

[9] = molecular target: T9, Lys(Dnp)-ATNATLMPRIVGG-Lys(Abz)
T9 chain: KATNATLMPRIVGGK

[10] = molecular target: T10, Lys(Dnp)-ATNATRYPRIVGG-Lys(Abz)
T10 chain: KATNATRYPRIVGGK

[11] = molecular target: T11, Lys(Dnp)-ATNATREPRIVGG-Lys(Abz)
T11 chain: KATNATREPRIVGGK

[12] = molecular target: T12, Lys(Dnp)-ATNATGDPRIVGG-Lys(Abz)
T12 chain: KATNATGDPRIVGGK

[13] = molecular target: T13, Lys(Dnp)-ATNATRNPRIVGG-Lys(Abz)
T13 chain: KATNATRNPRIVGGK

[14] = molecular target: T14, Lys(Dnp)-ATNATIDPRIVGG-Lys(Abz)
T14 chain: KATNATIDPRIVGGK

[15] = molecular target: T15, Lys(Dnp)-ATNATPLPRIVGG-Lys(Abz)
T15 chain: KATNATPLPRIVGGK

[16] = molecular target: T16, Lys(Dnp)-ATNATYLPRIVGG-Lys(Abz)
T16 chain: KATNATYLPRIVGGK

[17] = molecular target: T17, Lys(Dnp)-ATNATWWPRIVGG-Lys(Abz)
T17 chain: KATNATWWPRIVGGK

[18] = molecular target: T18, Lys(Dnp)-ATNATKVPRIVGG-Lys(Abz)
T18 chain: KATNATKVPRIVGGK

[19] = molecular target: T19, Lys(Dnp)-ATNATMSPRIVGG-Lys(Abz)
T19 chain: KATNATMSPRIVGGK

[20] = molecular target: T20, Lys(Dnp)-ATNATVGPRIVGG-Lys(Abz)
T20 chain: KATNATVGPRIVGGK

[21] = molecular target: T21, Lys(Dnp)-ATNATTQPRIVGG-Lys(Abz)
T21 chain: KATNATTQPRIVGGK

[22] = molecular target: T22, Lys(Dnp)-ATNATTKPRIVGG-Lys(Abz)
T22 chain: KATNATTKPRIVGGK

[23] = molecular target: T23, Lys(Dnp)-ATNATQDPRIVGG-Lys(Abz)
T23 chain: KATNATQDPRIVGGK

[24] = molecular target: T24, Lys(Dnp)-ATNATTRPRIVGG-Lys(Abz)
T24 chain: KATNATTRPRIVGGK

[25] = molecular target: T25, Lys(Dnp)-ATNATWEPRIVGG-Lys(Abz)
T25 chain: KATNATWEPRIVGGK

[26] = molecular target: T26, Lys(Dnp)-ATNATPRPRIVGG-Lys(Abz)
T26 chain: KATNATPRPRIVGGK

[27] = molecular target: T27, Lys(Dnp)-ATNATHIPRIVGG-Lys(Abz)
T27 chain: KATNATHIPRIVGGK

[28] = molecular target: T28, Lys(Dnp)-ATNATRLPRIVGG-Lys(Abz)
T28 chain: KATNATRLPRIVGGK

[29] = molecular target: T29, Lys(Dnp)-ATNATRVPRIVGG-Lys(Abz)
T29 chain: KATNATRVPRIVGGK

[30] = molecular target: T30, Lys(Dnp)-ATNATTMPRIVGG-Lys(Abz)
T30 chain: KATNATTMPRIVGGK

[31] = molecular target: T31, Lys(Dnp)-ATNATKLPRIVGG-Lys(Abz)
T31 chain: KATNATKLPRIVGGK

[32] = molecular target: T32, Lys(Dnp)-ATNATSLPRIVGG-Lys(Abz)
T32 chain: KATNATSLPRIVGGK

[33] = molecular target: T33, Lys(Dnp)-ATNATKIPRIVGG-Lys(Abz)
T33 chain: KATNATKIPRIVGGK

[34] = molecular target: T34, Lys(Dnp)-ATNATYPPRIVGG-Lys(Abz)
T34 chain: KATNATYPPRIVGGK

[35] = molecular target: T35, Lys(Dnp)-ATNATDHPRIVGG-Lys(Abz)
T35 chain: KATNATDHPRIVGGK

[36] = molecular target: T36, Lys(Dnp)-ATNATFSPRIVGG-Lys(Abz)
T36 chain: KATNATFSPRIVGGK

[37] = molecular target: T37, Lys(Dnp)-ATNATHNPRIVGG-Lys(Abz)
T37 chain: KATNATHNPRIVGGK

[38] = molecular target: T38, Lys(Dnp)-ATNATYYPRIVGG-Lys(Abz)
T38 chain: KATNATYYPRIVGGK

[39] = molecular target: T39, Lys(Dnp)-ATNATFNPRIVGG-Lys(Abz)
T39 chain: KATNATFNPRIVGGK

[40] = molecular target: T40, Lys(Dnp)-ATNATFLPRIVGG-Lys(Abz)
T40 chain: KATNATFLPRIVGGK

[41] = molecular target: T41, Lys(Dnp)-ATNATNIPRIVGG-Lys(Abz)
T41 chain: KATNATNIPRIVGGK

B1: Human plasma purified Factor Xa (protein)
chain 1: ANSFLEEMKKGHLERECMEETCSYEEAREVFEDSDKTNEFWNKYKDGDQCETSPCQNQGKCKDGLGEYTCTCLEGFEGKNCELFTRKLCSLDNGDCDQFCHEEQNSVVCSCARGYTLADNGKACIPTGPYPCGKQTLER
chain 2: IVGGQECKDGECPWQALLINEENEGFCGGTILSEFYILTAAHCLYQAKRFKVRVGDRNTEQEEGGEAVHEVEVVIKHNRFTKETYDFDIAVLRLKTPITFRMNVAPACLPERDWAESTLMTQKTGIVSGFGRTHEKGRQSTRLKMLEVPYVDRNSCKLSSSFIITQNMFCAGYDTKQEDACQGDSGGPHVTRFKDTYFVTGIVSWGEGCARKGKYGIYTKVTAFLKWIDRSMKTRGLPKAKSHAPEVITSSPLK
[1]
  FXa kcat/KM: 290 M⁻¹ s⁻¹
[2]
  FXa kcat/KM: 74 M⁻¹ s⁻¹
[3]
  FXa kcat/KM: 54 M⁻¹ s⁻¹
[4]
  FXa kcat/KM: 130 M⁻¹ s⁻¹
[5]
  FXa kcat/KM: 540 M⁻¹ s⁻¹
[6]
  FXa kcat/KM: 29 M⁻¹ s⁻¹
[7]
  FXa kcat/KM: 54 M⁻¹ s⁻¹
[8]
  FXa kcat/KM: 1500 M⁻¹ s⁻¹
[9]
  FXa kcat/KM: 2700 M⁻¹ s⁻¹

B2: Human plasma purified Factor Xa (Molecular Innovations, Inc) (protein)
chain 1: B1 chain 1
chain 2: B1 chain 2
[10]
  FXa kcat/KM: 960 M⁻¹ s⁻¹
[11]
  FXa kcat/KM: 2400 M⁻¹ s⁻¹
[12]
  FXa kcat/KM: 73 M⁻¹ s⁻¹
[13]
  FXa kcat/KM: 1700 M⁻¹ s⁻¹
[14]
  FXa kcat/KM: 1300 M⁻¹ s⁻¹
[15]
  FXa kcat/KM: 330 M⁻¹ s⁻¹
[16]
  FXa kcat/KM: 340 M⁻¹ s⁻¹
[17]
  FXa kcat/KM: 70 M⁻¹ s⁻¹
[18]
  FXa kcat/KM: 50 M⁻¹ s⁻¹
[19]
  FXa kcat/KM: 570 M⁻¹ s⁻¹
[20]
  FXa kcat/KM: 49 M⁻¹ s⁻¹
[21]
  FXa kcat/KM: 17 M⁻¹ s⁻¹
[22]
  FXa kcat/KM: 14 M⁻¹ s⁻¹
[23]
  FXa kcat/KM: 680 M⁻¹ s⁻¹
[24]
  FXa kcat/KM: 37 M⁻¹ s⁻¹
[25]
  FXa kcat/KM: 24 M⁻¹ s⁻¹
[26]
  FXa kcat/KM: 500 M⁻¹ s⁻¹
[27]
  FXa kcat/KM: 78 M⁻¹ s⁻¹
[28]
  FXa kcat/KM: 1400 M⁻¹ s⁻¹
[29]
  FXa kcat/KM: 510 M⁻¹ s⁻¹
[30]
  FXa kcat/KM: 13 M⁻¹ s⁻¹
[31]
  FXa kcat/KM: 89 M⁻¹ s⁻¹
[32]
  FXa kcat/KM: 82 M⁻¹ s⁻¹
[33]
  FXa kcat/KM: 62 M⁻¹ s⁻¹
[34]
  FXa kcat/KM: 20 M⁻¹ s⁻¹
[35]
  FXa kcat/KM: 5 M⁻¹ s⁻¹
[36]
  FXa kcat/KM: 190 M⁻¹ s⁻¹
[37]
  FXa kcat/KM: 71 M⁻¹ s⁻¹
[38]
  FXa kcat/KM: 48 M⁻¹ s⁻¹
[39]
  FXa kcat/KM: 200 M⁻¹ s⁻¹
[40]
  FXa kcat/KM: 530 M⁻¹ s⁻¹
[41]
  FXa kcat/KM: 38 M⁻¹ s⁻¹
